± gives the standard deviation of the averaged measurements.
Test system: ATP
Test: switch fluorescence ratio, 500 uM ATP over buffer (Cy3 cluster intensity, sum of 5 cycles each) (fold (ratio)); higher = stronger signal-on switching upon ATP binding; sequences stand for … in TCGTCGGCAGCGTCAGATGTGTATAAGAGACAGTTTTTTTTTTTTTTTTTTTTTTTTT…TC
Conditions: aptamer strand: ATP DNA aptamer (quencher-CACCTGGGGGAGTATTGCGGAGGAAGG + anchor), 100 nM annealed; ATP concentration: 500 uM
Outline: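 The fluorescence ratio divides summed target-cycle Cy3 intensity by summed buffer-cycle Cy3 intensity for each cluster and is averaged per switch-domain sequence. Cy3-labelled switching-strand clusters on a modified Illumina MiSeq flow-cell were annealed to 100 nM quencher-labelled ATP aptamer, then imaged in selection buffer and again after 15 min with 500 uM ATP at 22 °C. Five such cycles were run, with NaOH stripping and re-annealing between them, and clusters outside 100-1000 RFU were excluded.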
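Note: ATP exposure 15 min at 22 °C before imaging.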

Row | Sequence | switch fluorescence ratio
1 | GGGGAAACGG | 1.06 ± 0.085
2 | GGGGAAGAGG | 0.983 ± 0.011
3 | GGGGAAGCCG | 1.01 ± 0.027
4 | GGGGAAGGTA | 0.978 ± 0.019
5 | GGGGAATAAG | 1.01 ± 0.053
6 | GGGGAATGCA | 1.01 ± 0.034
7 | GGGGAATGCG | 1.01 ± 0.0065
8 | GGGGAATTAT | 1.03 ± 0.0058
9 | GGGGACAAGT | 1.0212 ± 0.00058
10 | GGGGACATAA | 0.997 ± 0.011
11 | GGGGACATGG | 1.07 ± 0.11
12 | GGGGACCGCG | 0.969 ± 0.016
13 | GGGGACCTAC | 1.08 ± 0.022
14 | GGGGACGAGG | 0.999 ± 0.028
15 | GGGGACGCTG | 0.98 ± 0.012
16 | GGGGACGGAT | 1.04 ± 0.052
17 | GGGGACTGTA | 1.04 ± 0.061
18 | GGGGAGATGT | 1.01 ± 0.014
19 | GGGGAGGGGG | 0.999 ± 0.044
20 | GGGGAGGTAG | 0.985 ± 0.014
21 | GGGGAGTAGG | 1.03 ± 0.049
22 | GGGGAGTAGT | 1.01 ± 0.024
23 | GGGGAGTTTA | 1.027 ± 0.0017

Row | Sequence | switch fluorescence ratio
24 | GGGGAGTTTG | 1.01 ± 0.064
25 | GGGGATAACA | 1.028 ± 0.00063
26 | GGGGATAGAG | 1.01 ± 0.015
27 | GGGGATAGTG | 0.997 ± 0.011
28 | GGGGATATGC | 0.995 ± 0.048
29 | GGGGATGAAA | 0.989 ± 0.011
30 | GGGGATGCAT | 1.01 ± 0.059
31 | GGGGATGGGA | 1.01 ± 0.033
32 | GGGGATTAGT | 0.997 ± 0.043
33 | GGGGATTGAA | 0.994 ± 0.018
34 | GGGGCAAGAT | 1.52 ± 0.78
35 | GGGGCACATT | 0.9885 ± 0.0046
36 | GGGGCAGACT | 1.03 ± 0.018
37 | GGGGCAGGAT | 1.22 ± 0.34
38 | GGGGCAGGGT | 1.03 ± 0.064
39 | GGGGCAGTAG | 1.04 ± 0.046
40 | GGGGCATAGG | 0.9777 ± 0.0015
41 | GGGGCCCATG | 0.992 ± 0.021
42 | GGGGCCGGCG | 1.08 ± 0.11
43 | GGGGCCGTTT | 0.973 ± 0.03
44 | GGGGCGACTA | 1.03 ± 0.052
45 | GGGGCGAGAG | 0.9939 ± 0.0046
46 | GGGGCGAGTG | 1 ± 0.035

Row | Sequence | switch fluorescence ratio
47 | GGGGCGCAGG | 0.993 ± 0.011
48 | GGGGCGCCTG | 1.01 ± 0.048
49 | GGGGCGCGAC | 0.993 ± 0.085
50 | GGGGCGGATT | 0.984 ± 0.014
51 | GGGGCGGCCT | 0.979 ± 0.04
52 | GGGGCGGGCC | 0.971 ± 0.021
53 | GGGGCGGTCC | 1.04 ± 0.043
54 | GGGGCGTACG | 1.05 ± 0.2
55 | GGGGCGTCGT | 1.02 ± 0.029
56 | GGGGCGTCTG | 1.04 ± 0.06
57 | GGGGCGTTAG | 1.002 ± 0.0065
58 | GGGGCTAGCG | 0.99 ± 0.02
59 | GGGGCTCAGA | 0.993 ± 0.011
60 | GGGGCTCTGT | 1 ± 0.012
61 | GGGGCTTAGT | 1.03 ± 0.017
62 | GGGGCTTATC | 1.03 ± 0.043
63 | GGGGGAACCG | 0.994 ± 0.08
64 | GGGGGAACGC | 0.998 ± 0.054
65 | GGGGGAAGAG | 1.01 ± 0.021
66 | GGGGGAAGGA | 0.995 ± 0.036
67 | GGGGGAATA | 0.993 ± 0.051
68 | GGGGGAATGC | 1.07 ± 0.11
69 | GGGGGACTGG | 0.981 ± 0.019

Row | Sequence | switch fluorescence ratio
70 | GGGGGACTTA | 0.998 ± 0.043
71 | GGGGGAGCCC | 0.9896 ± 0.0091
72 | GGGGGAGGGA | 0.997 ± 0.04
73 | GGGGGAGTAA | 1.05 ± 0.15
74 | GGGGGAGTCA | 1 ± 0.056
75 | GGGGGAGTCG | 1.02 ± 0.048
76 | GGGGGATATC | 0.994 ± 0.06
77 | GGGGGATATG | 0.984 ± 0.027
78 | GGGGGATGAT | 0.9889 ± 0.007
79 | GGGGGATGGG | 0.998 ± 0.032
80 | GGGGGCAATC | 2.84 ± 0.54
81 | GGGGGCACGG | 1.01 ± 0.012
82 | GGGGGCACTT | 1.008 ± 0.0045
83 | GGGGGCCCCG | 1 ± 0.013
84 | GGGGGCCGGA | 1.01 ± 0.048
85 | GGGGGCCGGC | 1.028 ± 0.0031
86 | GGGGGCCTAA | 1 ± 0.028
87 | GGGGGCCTGG | 0.979 ± 0.019
88 | GGGGGCGCCG | 1.01 ± 0.097
89 | GGGGGCGCGT | 1.02 ± 0.038
90 | GGGGGCGGGA | 1.02 ± 0.059
91 | GGGGGCGGTA | 1.02 ± 0.059
92 | GGGGGCGTAC | 1.06 ± 0.083

Row | Sequence | switch fluorescence ratio
93 | GGGGGCGTAT | 1.051 ± 0.0072
94 | GGGGGCGTTT | 1.01 ± 0.045
95 | GGGGGCTTCG | 0.992 ± 0.048
96 | GGGGGCTTTT | 1.01 ± 0.034
97 | GGGGGGAACT | 0.987 ± 0.022
98 | GGGGGGAATG | 1 ± 0.03
99 | GGGGGGAGCA | 0.992 ± 0.018
100 | GGGGGGAGGT | 1.02 ± 0.065
101 | GGGGGGATCC | 0.996 ± 0.044
102 | GGGGGGATTA | 0.992 ± 0.035
103 | GGGGGGCAGT | 1 ± 0.023
104 | GGGGGGCATG | 0.992 ± 0.035
105 | GGGGGGCCAG | 1.01 ± 0.04
106 | GGGGGGCCCT | 0.996 ± 0.028
107 | GGGGGGCCTG | 0.982 ± 0.038
108 | GGGGGGCTGC | 0.978 ± 0.036
109 | GGGGGGGAAG | 1.01 ± 0.087
110 | GGGGGGGACA | 0.984 ± 0.031
111 | GGGGGGGACC | 0.999 ± 0.017
112 | GGGGGGGAGG | 0.993 ± 0.029
113 | GGGGGGGAGT | 0.995 ± 0.02
114 | GGGGGGGCAG | 0.986 ± 0.017
115 | GGGGGGGCTA | 0.9868 ± 0.0035

Row | Sequence | switch fluorescence ratio
116 | GGGGGGGCTG | 1.06 ± 0.4
117 | GGGGGGGGA | 1.05 ± 0.026
118 | GGGGGGGGTC | 0.989 ± 0.034
119 | GGGGGGTACG | 1 ± 0.05
120 | GGGGGGTCAA | 0.967 ± 0.033
121 | GGGGGGTGCG | 0.999 ± 0.019
122 | GGGGGGTTGC | 0.967 ± 0.035
123 | GGGGGTAGCT | 1 ± 0.017
124 | GGGGGTATAG | 1.02 ± 0.022
125 | GGGGGTATTT | 1 ± 0.018
126 | GGGGGTCACG | 0.978 ± 0.028
127 | GGGGGTCCAT | 0.954 ± 0.031
128 | GGGGGTCCGA | 0.9855 ± 0.0042
129 | GGGGGTCCTA | 0.977 ± 0.0099
130 | GGGGGTCTTT | 0.99 ± 0.023
131 | GGGGGTGAAC | 0.98 ± 0.029
132 | GGGGGTGACA | 0.9931 ± 0.0073
133 | GGGGGTGCAT | 0.9638 ± 0.0088
134 | GGGGGTGGAT | 1 ± 0.025
135 | GGGGGTGGCA | 0.998 ± 0.042
136 | GGGGGTGGCG | 0.973 ± 0.021
137 | GGGGGTGGGG | 1.01 ± 0.037
138 | GGGGGTGGTG | 0.988 ± 0.038

Row | Sequence | switch fluorescence ratio
139 | GGGGGTGTAA | 0.986 ± 0.018
140 | GGGGGTTAAG | 0.988 ± 0.029
141 | GGGGGTTAAT | 1.013 ± 0.0037
142 | GGGGGTTGCG | 0.979 ± 0.015
143 | GGGGTAAAAC | 1.02 ± 0.023
144 | GGGGTAAGAA | 0.981 ± 0.034
145 | GGGGTAATTT | 1.02 ± 0.035
146 | GGGGTACAAT | 1.07 ± 0.041
147 | GGGGTACCAC | 1.31 ± 0.4
148 | GGGGTACGCG | 0.984 ± 0.024
149 | GGGGTAGAAG | 1.004 ± 0.0016
150 | GGGGTAGACT | 0.995 ± 0.018
151 | GGGGTAGATG | 0.9985 ± 0.0033
152 | GGGGTAGCGA | 0.992 ± 0.051
153 | GGGGTAGGAC | 1.01 ± 0.017
154 | GGGGTAGGGA | 1 ± 0.019
155 | GGGGTAGGGC | 1.04 ± 0.057
156 | GGGGTAGGTT | 1.02 ± 0.053
157 | GGGGTATCGA | 0.998 ± 0.039

Source: the supplement of paper PMC10126150
